Reference: US20150198603A1 (TORAY INDUSTRIES, published 2015)

Tests used:
[1] = target: T1, human CAPRIN-1 as expressed on human breast cancer cell line MDA-MB-231V and in human cancer tissues (human, UniProt Q14444 2-709); test: flow cytometry on MDA-MB-231V cells expressing CAPRIN-1
T1 construct: whole, on cells; Endogenous protein on cells (flow cytometry) or in paraffin tissue sections (immunohistochemistry); also called CAPRIN-1 on the surface of breast cancer cells; CAPRIN-1 in the breast cancer tissues
T1 sequence (looked up): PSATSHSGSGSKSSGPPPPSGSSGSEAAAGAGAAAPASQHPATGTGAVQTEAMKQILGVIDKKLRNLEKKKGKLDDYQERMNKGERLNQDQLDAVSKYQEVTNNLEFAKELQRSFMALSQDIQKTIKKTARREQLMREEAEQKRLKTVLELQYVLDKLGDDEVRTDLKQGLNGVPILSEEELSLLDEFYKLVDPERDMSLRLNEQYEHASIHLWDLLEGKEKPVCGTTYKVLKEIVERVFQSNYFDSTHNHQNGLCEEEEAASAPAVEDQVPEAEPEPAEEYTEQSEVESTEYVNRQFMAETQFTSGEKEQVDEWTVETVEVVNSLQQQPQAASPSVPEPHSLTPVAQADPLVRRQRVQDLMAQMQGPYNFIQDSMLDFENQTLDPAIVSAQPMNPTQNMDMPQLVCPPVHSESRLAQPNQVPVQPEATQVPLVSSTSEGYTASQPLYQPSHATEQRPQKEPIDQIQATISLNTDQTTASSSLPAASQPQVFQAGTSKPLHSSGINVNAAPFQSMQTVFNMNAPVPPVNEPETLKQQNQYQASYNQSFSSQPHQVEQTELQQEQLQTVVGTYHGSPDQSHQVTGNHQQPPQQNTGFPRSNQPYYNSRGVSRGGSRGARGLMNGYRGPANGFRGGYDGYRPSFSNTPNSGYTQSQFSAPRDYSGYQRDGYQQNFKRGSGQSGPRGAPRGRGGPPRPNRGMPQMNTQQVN
Experimental: Next, these monoclonal antibodies were screened for antibodies reactive with the surface of breast cancer cells expressing CAPRIN-1. Specifically, 5×10⁵ cells of a human breast cancer cell line MDA-MB-231V were centrifuged in a 1.5-mL microcentrifuge tube. 100 μL of the culture supernatant of each hybridoma obtained above was added thereto and left standing for 1 hour on ice. After washing with PBS, FITC-labeled goat anti-chicken IgG (H+L) antibodies (SouthernBiotech) diluted 30-fold with PBS containing 0.1% FBS were added thereto and left standing for 1 hour on ice. After washing with PBS, the fluorescence intensity was measured using FACSCalibur (Becton, Dickinson and Company). On the other hand, the same operation as above was performed using a medium for hybridoma culture to prepare a control sample. As a result, 1 monoclonal antibody (chicken anti-human CAPRIN-1 monoclonal antibody #11) having stronger fluorescence intensity than that of the control, i.e., reactive with the surface of breast cancer cells expressing CAPRIN-1, was selected.

[2] = target: T2, peptide consisting of the amino acid sequence shown in SEQ ID NO: 66 (partial CAPRIN-1 sequence) (human); test: told from the digestion and MS/MS experiment done with #12
T2 peptide: QQPQAASPSVPE
Experimental: The cancer cell surface-reactive mouse-chicken chimeric anti-human CAPRIN-1 monoclonal antibody #12 obtained in the paragraph (4) was used to identify a CAPRIN-1 epitope region recognized thereby. 100 μg of recombinant CAPRIN-1 proteins was dissolved in a […] dissolving buffer and reacted with the monoclonal antibody #12. To this solution, a digestive enzyme trypsin or chymotrypsin was added, followed by digestion reaction at a proper temperature. After the reaction, a protein G Sepharose carrier was added thereto, then reacted, and precipitated by centrifugation operation. After removal of the supernatant, the carrier was washed with a dissolving buffer and PBS and dissolved in 0.1% formic acid, and the supernatant was recovered. The recovered supernatant sample was applied to a reverse-phase column (HLB Extraction Cartridge (Waters-OASIS)) to obtain an antibody-free sample solution. The obtained sample was subjected to reverse-phase liquid chromatography (Chromatography Nanosytem (KYA Technologies Corp.)) to recover a solution containing only peptides. The solution was introduced to a tandem-type mass spectrometer Quadrupole-TOF Mass Spectrometer (Waters-MicroMass) and analyzed by MS/MS to detect the peptides contained in the sample. […]

[3] = target: T3, human CAPRIN-1 having the amino acid sequence shown in SEQ ID NO: 2 (recombinant, as prepared in Example 3 of … (human, UniProt Q14444 1-709)); test: ELISA, plate coated with 1 µg/mL CAPRIN-1, hybridoma supernatant
T3 construct: limits and tags of the recombinant construct are described only in WO2010/016526; also called recombinant CAPRIN-1; CAPRIN-1 solution
T3 sequence: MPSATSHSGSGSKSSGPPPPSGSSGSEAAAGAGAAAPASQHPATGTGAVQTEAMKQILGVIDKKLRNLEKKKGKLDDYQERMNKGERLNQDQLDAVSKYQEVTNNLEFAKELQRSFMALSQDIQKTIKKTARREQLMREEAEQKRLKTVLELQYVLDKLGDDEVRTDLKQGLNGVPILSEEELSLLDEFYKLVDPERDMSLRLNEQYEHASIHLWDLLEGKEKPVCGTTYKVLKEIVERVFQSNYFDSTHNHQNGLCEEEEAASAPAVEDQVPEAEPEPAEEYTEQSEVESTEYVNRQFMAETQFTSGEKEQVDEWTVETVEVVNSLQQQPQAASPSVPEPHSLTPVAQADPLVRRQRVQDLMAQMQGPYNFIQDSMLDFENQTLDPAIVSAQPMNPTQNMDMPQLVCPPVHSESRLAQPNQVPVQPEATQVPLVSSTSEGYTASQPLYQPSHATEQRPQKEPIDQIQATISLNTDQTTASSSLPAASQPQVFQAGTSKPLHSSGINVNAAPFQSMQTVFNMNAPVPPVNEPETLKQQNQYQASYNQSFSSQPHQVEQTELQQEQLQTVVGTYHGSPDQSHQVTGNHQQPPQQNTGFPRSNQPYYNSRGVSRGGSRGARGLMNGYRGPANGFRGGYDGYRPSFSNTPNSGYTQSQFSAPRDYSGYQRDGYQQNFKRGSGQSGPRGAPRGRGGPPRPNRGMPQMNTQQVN
Experimental: The prepared hybridomas were screened with the binding affinity of antibodies produced by the hybridomas against CAPRIN-1 as an indicator. The 1 μg/mL CAPRIN-1 solution was added to a 96-well plate at 100 μL/well and left standing at 4° C. for 18 hours. Each well was washed three times with PBS-T. Then, a 0.5% bovine serum albumin (BSA) solution (Sigma-Aldrich Corp.) was added thereto at 400 μL/well and left standing at room temperature for 3 hours. The solution in each well was discarded, and each well was washed three times with 400 μL of PBS-T. Then, the culture supernatant of each hybridoma obtained above was added thereto at 100 μL/well and left standing at room temperature for 2 hours. Each well was washed three times with PBS-T. Then, HRP-labeled anti-chicken IgY antibodies (Sigma-Aldrich Corp.) diluted 5000-fold with PBS were added thereto at 100 μL/well and left standing at room temperature for 1 hour. Each well was washed three times with PBS-T. Then, a TMB substrate solution (Thermo Fisher Scientific Inc.) was added thereto at 100 μL/well and left standing for 15 to 30 minutes to cause color reaction. […] The absorbance was measured at 450 nm and 595 nm using an absorption spectrometer. As a result, several hybridomas producing antibodies having high absorbance were selected as candidate lines of the hybridoma of interest.

Measured: binding result

B1: chicken anti-human CAPRIN-1 monoclonal antibody #11 (antibody, V domains shown)
VH: AVTLDESGGGLQMSRGGLSLVCKASGFDFSSYQMNWIRQAPGKGLEFVAAINKFGNSTGHGAAVKGRVTISRDNGQSTVRLQLNNLRAEDTAIYFCTKHAYGYCGSGTWCAAGEIDAWGHGTEVIVSS
VL: QAASTQPSSVSANPGETVEITCSGGGSYSYGWFQQKSPGSAPVTVIYYNNKRPSDIPSRFSGSKSGSTGTLTITGVQADDEAVYYCGSGDSTDTAVFGAGTTLTVLG
notes: Chicken hybridoma antibody; also called chicken monoclonal antibody #11
binds: all assays above
